The values that follow come from patent US20230220098A1, “THERAPEUTIC DRUG FOR POLYCYTHEMIA” (PERSEUS PROTEOMICS INC., priority 2019, published 2023).

As a reminder, the GI50 is the concentration giving 50% growth inhibition.

Assay [1] deals with HYDREA (registered trademark)-administered patient-derived hematopoietic stem cells. Kind of assay: Erythroblast colony assay, HYDREA-administered patients. In kind it is cell-based, human. The protocol:
The peripheral blood of a PV patient, which had been obtained by phlebotomy, was dispensed into three 50-mL centrifuge tubes in an amount of 20 mL each, and an equal amount of PBS (Gibco) was then added to each tube, followed by mixing. Thereafter, 15 mL of LymphoSep, Lymphocyte Separation Media (MP Biomedicals™) was dispensed into […] novel 50-mL centrifuge tubes, and the peripheral blood diluted with PBS was then slowly added thereto in an amount of 30 mL each, and the obtained mixture was then centrifuged at 1,500 rpm at room temperature for 30 minutes. After completion of the centrifugation, the plasma as a supernatant was removed, and a PBMC layer was collected by transfer pipetting. The collected PBMC layer was suspended in 20 mL of PBS+2% FBS (Gibco). The thus obtained suspension was further centrifuged at 1350 rpm at room temperature for 10 minutes, a supernatant was then removed, and the residue was then suspended in 1 to 5 mL of IMDM (Nacalai Tesque)+2% FBS. Using 0.2% Trypan Blue, the number of cells was counted, and the cells were adjusted to 2×10^6 cells/mL by addition of IMDM+2% FBS.
TfR436 and a human IgG1 antibody used as a negative control were each diluted with IMDM+2% FBS to an antibody concentration of […]. MethoCult™ H4534 Classic WithoutEPO (STEMCELL TECHNOLOGIES) was dispensed into seven 14-mL round bottle tubes in an amount of 3 mL each, and 300 jut of the above-prepared PBMC was then added thereto. Thereafter, an antibody-diluted solution or 3.3 μL of IMDM+2% FBS (control) was further added thereto, followed by full mixing. Thereafter, the reaction mixture was seeded on two 35-mm culture dishes in an amount of 1 mL each. This mixture was cultured at 37° C. in a 5% CO2 incubator for 14 days. After completion of the culture, the 35-mm culture dishes were observed under a microscope, and the number of the formed BFU-E or CFU-E colonies was then counted. The colony formation percentage with respect to the number of colonies obtained by a culture without addition of antibodies was then calculated.
Hematopoietic stem cells derived from patients administered with HYDREA (registered trademark) were used as PV patient-derived hematopoietic stem cells, and the activity of TfR436 to inhibit erythroblast colony formation was examined by the same method as that of Example 3. Besides, HYDREA (registered trademark) was administered as hydroxycarbamide (also referred to as “hydroxyurea”) to the patients via oral administration at a daily dose of 500 mg to 2000 mg once or divided over twice or three times. As a result, erythroblast colony formation was inhibited by addition of 100 ng/mL or more TfR436 (Table 2).

A further assay deals with mouse TfR (Mus musculus, UniProt Q62351). Put plainly: Cross-reactivity of TfR436 antibody with mouse TfR. The assay is classed as binding.
In a further assay the test system is erythroblast cells. Put plainly: Growth of normal erythroblast cells derived from CD34-positive cells. In kind it is cell-based. The note with it: FIG. 4. On the procedure:
Frozen CD34-positive cells (POIETICS) were thawed at 37° C., and were then suspended in IMDM (GIBCO)+30% FBS (Sigma-Aldrich) and 100 U/ml DNase (QIAGEN), and thereafter, the cells were […] according to the instructions of the manufacturer. Thereafter, the cells were adjusted to 5×10^4 cells/ml with a culture medium prepared by adding 2-ME (50 μmol/L) (GIBCO), hIL-3 (100 U/ml) (Milteny biotec), hEPO (4 U/ml) (Roche), and hSCF (50 ng/ml) (Peprotech) to an SF-03 medium (EIDIA Co., Ltd.). The resulting cells were dispensed into a 24-well plate in an amount of 1 ml/well, and were then cultured at 37° C. in a 5% CO2 incubator. Seven days later, the cells were seeded into a 96-well plate, and the antibody was then added thereto in an amount of 0.15 ng/mL to 10 μg/mL, followed by culturing the mixture. A well without addition of the antibody was used as a control. Ninety six hours later, each well was fully stirred by pipetting, and 150 μl of the cell lysate was transferred into a V-bottom plate. Then, 20 μI of the transferred cell lysate was absorbed by FACS Calibur, and the number of cells was then counted. The value obtained by multiplying the obtained cell number by 10 was set to be the number of cells per well, and the growth percentage of the cells at each concentration of the antibody was then calculated, while the mean value of the control was set to be 100%.

Sequence of mouse TfR (Q62351 whole entry): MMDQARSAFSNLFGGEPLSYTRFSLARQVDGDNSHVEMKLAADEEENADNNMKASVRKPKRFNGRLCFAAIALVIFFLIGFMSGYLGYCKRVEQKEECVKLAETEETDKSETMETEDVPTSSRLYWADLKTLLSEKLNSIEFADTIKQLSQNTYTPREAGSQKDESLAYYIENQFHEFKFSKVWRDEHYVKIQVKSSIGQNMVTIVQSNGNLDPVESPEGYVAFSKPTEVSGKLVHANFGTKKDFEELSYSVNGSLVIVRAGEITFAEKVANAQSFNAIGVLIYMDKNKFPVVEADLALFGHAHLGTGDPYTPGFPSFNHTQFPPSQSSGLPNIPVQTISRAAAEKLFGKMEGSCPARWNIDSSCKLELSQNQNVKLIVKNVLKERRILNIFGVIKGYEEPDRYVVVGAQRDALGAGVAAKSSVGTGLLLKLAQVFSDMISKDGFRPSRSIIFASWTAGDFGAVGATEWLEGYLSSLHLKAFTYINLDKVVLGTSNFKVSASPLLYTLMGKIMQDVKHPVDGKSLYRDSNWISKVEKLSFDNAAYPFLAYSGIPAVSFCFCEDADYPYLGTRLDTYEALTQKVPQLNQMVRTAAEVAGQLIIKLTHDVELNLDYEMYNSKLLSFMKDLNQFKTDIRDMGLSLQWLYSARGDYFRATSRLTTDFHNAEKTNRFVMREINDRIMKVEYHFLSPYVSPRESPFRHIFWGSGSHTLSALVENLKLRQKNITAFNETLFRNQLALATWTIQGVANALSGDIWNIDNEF

B1: TfR436: anti-human transferrin receptor antibody, VH SEQ ID NO: 7 and VL SEQ ID NO: 8, described in WO2014/073641; called PPMX-T003 in Tables 3 and 4 (antibody, listed as Homo sapiens, V domains shown)
VH: DVQLVQSGGGVVQPGRSLRLSCAASGFPFKSYGMHWVRQAPGKGLEWVAVISYDGSNKYYADSVKGRFTISRDNSKNTLYLQMNSLRGEDTAVYYCARDSNFWSGYYSPVDVWGQGTTVTVSS
VL: NFMLTQPHSVSESPGKTVTISCTRSSGSIASNSVQWYQQRPGSAPITVIYEDTQRPSGVPDRFSGSIDSSSNSASLTISGLQTEDEADYYCQSYDSAYHWVFGGGTKLAVL
In the case of B1, the erythroblast colony formation result in assay [1] (100 ng/mL or more) is “inhibited”. Also, the “colony formation percentage with respect to culture without addition of antibodies” value in assay [1] (HYDREA-administered pt No. 1, 10 ng/mL) is listed as 109.1%; in assay [1] (HYDREA-administered pt No. 1, 100 ng/mL), 0.0%; in assay [1] (HYDREA-administered pt No. 1, 1000 ng/mL), 0.0%; in assay [1] (HYDREA-administered pt No. 23, 10 ng/mL), 100.0%; in assay [1] (HYDREA-administered pt No. 23, 100 ng/mL), 0.0%; in assay [1] (HYDREA-administered pt No. 23, 1000 ng/mL) it was 0.0%. Further, the “colony formation percentage with respect to culture without addition of antibodies” value in assay [1] (HYDREA-administered pt No. 24, 10 ng/mL) worked out at 68.6%; in assay [1] (HYDREA-administered pt No. 24, 100 ng/mL) it was 0.0%; in assay [1] (HYDREA-administered pt No. 24, 1000 ng/mL), 0.0%; in assay [1] (HYDREA-administered pt No. 26, 10 ng/mL) it was 148.9%; in assay [1] (HYDREA-administered pt No. 26, 100 ng/mL), 10.6%; in assay [1] (HYDREA-administered pt No. 26, 1000 ng/mL), 0.0%. The “colony formation percentage with respect to culture without addition of antibodies” value in assay [1] (HYDREA-administered pt No. 27, 10 ng/mL) worked out at 152.4%; in assay [1] (HYDREA-administered pt No. 27, 100 ng/mL), 0.0%; in assay [1] (HYDREA-administered pt No. 27, 1000 ng/mL), 0.0%; in assay [1] (HYDREA-administered pt No. 28, 10 ng/mL), 112.5%; in assay [1] (HYDREA-administered pt No. 28, 100 ng/mL), 0.0%; in assay [1] (HYDREA-administered pt No. 28, 1000 ng/mL), 0.0%. Besides, in the assay with mouse TfR, the “cross-reactivity with mouse TfR” value was “did not cross-react”. For the same molecule, the “growth of erythroblast cells” value with erythroblast cells (0.15 ng/mL to 10 μg/mL, 96 hours) is “suppressed the growth”. In the assay on erythroblast cells (96 hours culture), this molecule registered a GI50 of 0.125 µg/mL.
